From the supplement of paper PMC5998384

Legend:
[1] = system: HeLa Kyoto; test: solubility in G1/S (NP-40 vs SDS abundance) (log2 ratio); higher = more soluble; conditions: cell cycle stage: G1/S
[2] = system: HeLa Kyoto; test: melting temperature (median over replicates), in situ; higher = more thermally stable
[3] = system: HeLa Kyoto; test: solubility change mitosis vs G1/S (difference of NP-40 vs SDS log2 ratios) (log2 ratio difference); higher = more soluble in mitosis
[4] = system: HeLa Kyoto; test: thermal stability score vs G1/S (z-score of summed log2 fold changes over temperatures); higher = more thermally stable than in G1/S
[5] = cell cycle stage: early G1 (4.5 h after nocodazole release)
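Wherever melting temperature (median over replicates), in situ is given: HeLa Kyoto cells synchronized by double thymidine or nocodazole block, proteins quantified by TMT10plex mass spectrometry, three independent biological replicates.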
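Wherever solubility change mitosis vs G1/S (difference of NP-40 vs SDS log2 ratios) is given: synchronized HeLa Kyoto cells (double thymidine block for G1/S, nocodazole release for mitosis), protein amounts in NP-40 versus SDS lysates quantified by mass spectrometry, three biological replicates.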
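Wherever solubility in G1/S (NP-40 vs SDS abundance) is given: HeLa Kyoto cells arrested at G1/S by double thymidine block, proteins quantified by TMT10plex mass spectrometry in mild NP-40 versus SDS extracts, three biological replicates.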
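Wherever thermal stability score vs G1/S (z-score of summed log2 fold changes over temperatures) is given: synchronized HeLa Kyoto cells, proteins quantified by TMT10plex mass spectrometry, three biological replicates, mitosis taken 0.5 h after nocodazole release, G1/S directly after double thymidine block.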

Chain of UAP1 (chain, as listed by the source): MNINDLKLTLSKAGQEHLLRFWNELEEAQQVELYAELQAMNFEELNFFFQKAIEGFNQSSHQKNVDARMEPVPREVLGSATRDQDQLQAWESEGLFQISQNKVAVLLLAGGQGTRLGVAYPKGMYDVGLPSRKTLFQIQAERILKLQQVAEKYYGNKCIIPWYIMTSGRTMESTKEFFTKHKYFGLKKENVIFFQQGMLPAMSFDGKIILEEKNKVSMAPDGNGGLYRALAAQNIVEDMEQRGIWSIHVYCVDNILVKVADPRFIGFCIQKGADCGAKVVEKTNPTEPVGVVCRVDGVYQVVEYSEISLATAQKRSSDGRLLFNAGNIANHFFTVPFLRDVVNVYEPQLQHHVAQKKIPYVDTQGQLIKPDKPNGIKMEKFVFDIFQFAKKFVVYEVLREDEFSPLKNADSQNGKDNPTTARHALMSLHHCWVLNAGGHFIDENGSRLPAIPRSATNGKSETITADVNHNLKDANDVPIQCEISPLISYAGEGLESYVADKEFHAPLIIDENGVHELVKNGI

Substance	solubility in G1/S (log2) [1]	melting temperature ([2]; cell cycle stage: G1/S)	melting temperature ([2]; cell cycle stage: mitosis)	solubility change mitosis (log2) [3]	thermal stability score [4, 5]	thermal stability score ([4]; cell cycle stage: mitosis)
MPELAVQKVVVHPLVLLSVVDHFNRIGKVGNQKRVVGVLLGSWQKKVLDVSNSFAVPFDEDDKDDSVWFLDHDYLENMYGMFKKVNARERIVGWYHTGPKLHKNDIAINELMKRYCPNSVLVIIDVKPKDLGLPTEAYISVEEVHDDGTPTSKTFEHVTSEIGAEEAEEVGVEHLLRDIKDTTVGTLSQRITNQVHGLKGLNSKLLDIRSYLEKVATGKLPINHQIIYQLQDVFNLLPDVSLQEFVKAFYLKTNDQMVVVYLASLIRSVVALHNLINNKIANRDAEKKEGQEKEESKKDRKEDKEKDKDKEKSDVKKEEKKEKK [PSMD7]	0.121	53.9 °C	51.6 °C	0.00337	-0.335	-1.17
MDGFAGSLDDSISAASTSDVQDRLSALESRVQQQEDEITVLKAALADVLRRLAISEDHVASVKKSVSSKGQPSPRAVIPMSCITNGSGANRKPSHTSAVSIAGKETLSSAAKSGTEKKKEKPQGQREKKEESHSNDQSPQIRASPSPQPSSQPLQIHRQTPESKNATPTKSIKRPSPAEKSHNSWENSDDSRNKLSKIPSTPKLIPKVTKTADKHKDVIINQEGEYIKMFMRGRPITMFIPSDVDNYDDIRTELPPEKLKLEWAYGYRGKDCRANVYLLPTGKIVYFIASVVVLFNYEERTQRHYLGHTDCVKCLAIHPDKIRIATGQIAGVDKDGRPLQPHVRVWDSVTLSTLQIIGLGTFERGVGCLDFSKADSGVHLCIIDDSNEHMLTVWDWQKKAKGAEIKTTNEVVLAVEFHPTDANTIITCGKSHIFFWTWSGNSLTRKQGIFGKYEKPKFVQCLAFLGNGDVLTGDSGGVMLIWSKTTVEPTPGKGPKGVYQISKQIKAHDGSVFTLCQMRNGMLLTGGGKDRKIILWDHDLNPEREIEVPDQYGTIRAVAEGKADQFLVGTSRNFILRGTFNDGFQIEVQGHTDELWGLATHPFKDLLLTCAQDRQVCLWNSMEHRLEWTRLVDEPGHCADFHPSGTVVAIGTHSGRWFVLDAETRDLVSIHTDGNEQLSVMRYSIDGTFLAVGSHDNFIYLYVVSENGRKYSRYGRCTGHSSYITHLDWSPDNKYIMSNSGDYEILYWDIPNGCKLIRNRSDCKDIDWTTYTCVLGFQVFGVWPEGSDGTDINALVRSHNRKVIAVADDFCKVHLFQYPCSKAKAPSHKYSAHSSHVTNVSFTHNDSHLISTGGKDMSIIQWKLVEKLSLPQNETVADTTLTKAPVSSTESVIQSNTPTPPPSQPLNETAEEESRISSSPTLLENSLEQTVEPSEDHSEEESEEGSGDLGEPLYEEPCNEISKEQAKATLLEDQQDPSPSS [EML4]	-0.0517	51 °C	50.3 °C	-0.0416	-1.11	-1.34
UAP1	0.216	53.2 °C	53.3 °C	-0.119	0.837	1.62
MEQWRQCGRWLIDCKVLPPNHRVVWPSAVVFDLAQALRDGVLLCQLLHNLSPGSIDLKDINFRPQMSQFLCLKNIRTFLKVCHDKFGLRNSELFDPFDLFDVRDFGKVISAVSRLSLHSIAQNKGIRPFPSEETTENDDDVYRSLEELADEHDLGEDIYDCVPCEDGGDDIYEDIIKVEVQQPMIRYMQKMGMTEDDKRNCCLLEIQETEAKYYRTLEDIEKNYMSPLRLVLSPADMAAVFINLEDLIKVHHSFLRAIDVSVMVGGSTLAKVFLDFKERLLIYGEYCSHMEHAQNTLNQLLASREDFRQKVEECTLKVQDGKFKLQDLLVVPMQRVLKYHLLLKELLSHSAERPERQQLKEALEAMQDLAMYINEVKRDKETLRKISEFQSSIENLQVKLEEFGRPKIDGELKVRSIVNHTKQDRYLFLFDKVVIVCKRKGYSYELKEIIELLFHKMTDDPMNNKDVKKSHGKMWSYGFYLIHLQGKQGFQFFCKTEDMKRKWMEQFEMAMSNIKPDKANANHHSFQMYTFDKTTNCKACKMFLRGTFYQGYMCTKCGVGAHKECLEVIPPCKFTSPADLDASGAGPGPKMVAMQNYHGNPAPPGKPVLTFQTGDVLELLRGDPESPWWEGRLVQTRKSGYFPSSSVKPCPVDGRPPISRPPSREIDYTAYPWFAGNMERQQTDNLLKSHASGTYLIRERPAEAERFAISIKFNDEVKHIKVVEKDNWIHITEAKKFDSLLELVEYYQCHSLKESFKQLDTTLKYPYKSRERSASRASSRSPASCASYNFSFLSPQGLSFASQGPSAPFWSVFTPRVIGTAVARYNFAARDMRELSLREGDVVRIYSRIGGDQGWWKGETNGRIGWFPSTYVEEEGIQ [VAV2]	-0.0231	48.7 °C	48.9 °C	-0.269	0.0861	1.36
MALLAMHSWRWAAAAAAFEKRRHSAILIRPLVSVSGSGPQWRPHQLGALGTARAYQIPESLKSITWQRLGKGNSGQFLDAAKALQVWPLIEKRTCWHGHAGGGLHTDPKEGLKDVDTRKIIKAMLSYVWPKDRPDLRARVAISLGFLGGAKAMNIVVPFMFKYAVDSLNQMSGNMLNLSDAPNTVATMATAVLIGYGVSRAGAAFFNEVRNAVFGKVAQNSIRRIAKNVFLHLHNLDLGFHLSRQTGALSKAIDRGTRGISFVLSALVFNLLPIMFEVMLVSGVLYYKCGAQFALVTLGTLGTYTAFTVAVTRWRTRFRIEMNKADNDAGNAAIDSLLNYETVKYFNNERYEAQRYDGFLKTYETASLKSTSTLAMLNFGQSAIFSVGLTAIMVLASQGIVAGTLTVGDLVMVNGLLFQLSLPLNFLGTVYRETRQALIDMNTLFTLLKVDTQIKDKVMASPLQITPQTATVAFDNVHFEYIEGQKVLSGISFEVPAGKKVAIVGGSGSGKSTIVRLLFRFYEPQKGSIYLAGQNIQDVSLESLRRAVGVVPQDAVLFHNTIYYNLLYGNISASPEEVYAVAKLAGLHDAILRMPHGYDTQVGERGLKLSGGEKQRVAIARAILKDPPVILYDEATSSLDSITEETILGAMKDVVKHRTSIFIAHRLSTVVDADEIIVLDQGKVAERGTHHGLLANPHSIYSEMWHTQSSRVQNHDNPKWEAKKENISKEEERKKLQEEIVNSVKGCGNCSC [ABCB7]	-0.121	52.5 °C	51.6 °C	-0.12	-0.909	-1.83
MKLNVDGLLVYFPYDYIYPEQFSYMRELKRTLDAKGHGVLEMPSGTGKTVSLLALIMAYQRAYPLEVTKLIYCSRTVPEIEKVIEELRKLLNFYEKQEGEKLPFLGLALSSRKNLCIHPEVTPLRFGKDVDGKCHSLTASYVRAQYQHDTSLPHCRFYEEFDAHGREVPLPAGIYNLDDLKALGRRQGWCPYFLARYSILHANVVVYSYHYLLDPKIADLVSKELARKAVVVFDEAHNIDNVCIDSMSVNLTRRTLDRCQGNLETLQKTVLRIKETDEQRLRDEYRRLVEGLREASAARETDAHLANPVLPDEVLQEAVPGSIRTAEHFLGFLRRLLEYVKWRLRVQHVVQESPPAFLSGLAQRVCIQRKPLRFCAERLRSLLHTLEITDLADFSPLTLLANFATLVSTYAKGFTIIIEPFDDRTPTIANPILHFSCMDASLAIKPVFERFQSVIITSGTLSPLDIYPKILDFHPVTMATFTMTLARVCLCPMIIGRGNDQVAISSKFETREDIAVIRNYGNLLLEMSAVVPDGIVAFFTSYQYMESTVASWYEQGILENIQRNKLLFIETQDGAETSVALEKYQEACENGRGAILLSVARGKVSEGIDFVHHYGRAVIMFGVPYVYTQSRILKARLEYLRDQFQIRENDFLTFDAMRHAAQCVGRAIRGKTDYGLMVFADKRFARGDKRGKLPRWIQEHLTDANLNLTVDEGVQVAKYFLRQMAQPFHREDQLGLSLLSLEQLESEETLKRIEQIAQQL [ERCC2]	-0.193	48.9 °C	49.1 °C	-0.0825	1	2.34
MSASAQQLAEELQIFGLDCEEALIEKLVELCVQYGQNEEGMVGELIAFCTSTHKVGLTSEILNSFEHEFLSKRLSKARHSTCKDSGHAGARDIVSIQELIEVEEEEEILLNSYTTPSKGSQKRAISTPETPLTKRSVSTRSPHQLLSPSSFSPSATPSQKYNSRSNRGEVVTSFGLAQGVSWSGRGGAGNISLKVLGCPEALTGSYKSMFQKLPDIREVLTCKIEELGSELKEHYKIEAFTPLLAPAQEPVTLLGQIGCDSNGKLNNKSVILEGDREHSSGAQIPVDLSELKEYSLFPGQVVIMEGINTTGRKLVATKLYEGVPLPFYQPTEEDADFEQSMVLVACGPYTTSDSITYDPLLDLIAVINHDRPDVCILFGPFLDAKHEQVENCLLTSPFEDIFKQCLRTIIEGTRSSGSHLVFVPSLRDVHHEPVYPQPPFSYSDLSREDKKQVQFVSEPCSLSINGVIFGLTSTDLLFHLGAEEISSSSGTSDRFSRILKHILTQRSYYPLYPPQEDMAIDYESFYVYAQLPVTPDVLIIPSELRYFVKDVLGCVCVNPGRLTKGQVGGTFARLYLRRPAADGAERQSPCIAVQVVRI [POLA2]	0.0737	48.8 °C	50.2 °C	-0.155	1.44	4.66
EPPK1	-2.27		51.3 °C	0.311	-7.26	-8.82
MDTGVIEGGLNVTLTIRLLMHGKEVGSIIGKKGESVKKMREESGARINISEGNCPERIITLAGPTNAIFKAFAMIIDKLEEDISSSMTNSTAASRPPVTLRLVVPASQCGSLIGKGGCKIKEIRESTGAQVQVAGDMLPNSTERAITIAGIPQSIIECVKQICVVMLETLSQSPPKGVTIPYRPKPSSSPVIFAGGQDRYSTGSDSASFPHTTPSMCLNPDLEGPPLEAYTIQGQYAIPQPDLTKLHQLAMQQSHFPMTHGNTGFSGIESSSPEVKGYWGLDASAQTTSHELTIPNDLIGCIIGRQGAKINEIRQMSGAQIKIANPVEGSTDRQVTITGSAASISLAQYLINVRLSSETGGMGSS [PCBP2]	0.222	47.9 °C	49.5 °C	-0.136	1.75	7.6
MRSLLLLSAFCLLEAALAAEVKKPAAAAAPGTAEKLSPKAATLAERSAGLAFSLYQAMAKDQAVENILVSPVVVASSLGLVSLGGKATTASQAKAVLSAEQLRDEEVHAGLGELLRSLSNSTARNVTWKLGSRLYGPSSVSFADDFVRSSKQHYNCEHSKINFRDKRSALQSINEWAAQTTDGKLPEVTKDVERTDGALLVNAMFFKPHWDEKFHHKMVDNRGFMVTRSYTVGVMMMHRTGLYNYYDDEKEKLQIVEMPLAHKLSSLIILMPHHVEPLERLEKLLTKEQLKIWMGKMQKKAVAISLPKGVVEVTHDLQKHLAGLGLTEAIDKNKADLSRMSGKKDLYLASVFHATAFELDTDGNPFDQDIYGREELRSPKLFYADHPFIFLVRDTQSGSLLFIGRLVRPKGDKMRDEL [SERPINH1]	0.232	54.2 °C	55.2 °C	-0.0819	4.47	4.77
MPQYQTWEEFSRAAEKLYLADPMKARVVLKYRHSDGNLCVKVTDDLVCLVYKTDQAQDVKKIEKFHSQLMRLMVAKEARNVTMETE [SRP9]	-0.607	53.5 °C	52.1 °C	0.394	-2.84	-5.71
MYH9	0.1	53.4 °C	52.1 °C	-0.117	-1.58	0.618
MAREMTILGSAVLTLLLAGYLAQQYLPLPTPKVIGIDLGTTYCSVGVFFPGTGKVKVIPDENGHISIPSMVSFTDNDVYVGYESVELADSNPQNTIYDAKRFIGKIFTAEELEAEIGRYPFKVLNKNGMVEFSVTSNETITVSPEYVGSRLLLKLKEMAEAYLGMPVANAVISVPAEFDLKQRNSTIEAANLAGLKILRVINEPTAAAMAYGLHKADVFHVLVIDLGGGTLDVSLLNKQGGMFLTRAMSGNNKLGGQDFNQRLLQYLYKQIYQTYGFVPSRKEEIHRLRQAVEMVKLNLTLHQSAQLSVLLTVEEQDRKEPHSSDTELPKDKLSSADDHRVNSGFGRGLSDKKSGESQVLFETEISRKLFDTLNEDLFQKILVPIQQVLKEGHLEKTEIDEVVLVGGSTRIPRIRQVIQEFFGKDPNTSVDPDLAVVTGVAIQAGIDGGSWPLQVSALEIPNKHLQKTNFN [HSPA13]	0.088	54.6 °C	53.3 °C	0.00641	4.12	4.92
